We go through 94 variants from the supplement of paper PMC10567573.

The chains are these.
B1: DLC1 (parent)
chain: RDAIEALCRRLNTLNKCAVMKLEI
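Further: lentivirally expressed fusions sorted by FACS into six bins by GFP to DsRed ratio, PSI derived from sequencing read proportions per bin multiplied by bin number.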

Variants of B1 are the subject of the series. Briefly: protein stability index of a GFP-peptide fusion (GPS, HEK-293T) (PSI 1-6); higher = more stable. As to conditions: c terminus: a fixed tail appended.
Regarding RDAIEYLCRRLNTLNKCAVMKLEI, the protein stability index worked out at 1.73.
Take RDAIEDLCRRLNTLNKCAVMKLEI: the protein stability index came to 1.41.
In the case of RDAIENLCRRLNTLNKCAVMKLEI, the protein stability index was found to be 2.69.
For RDAIEALCRRLNRLNKCAVMKLEI, the protein stability index was 2.35.
As to RDAIEALCRRLNKLNKCAVMKLEI, the protein stability index is 1.55.
RDAIEALCRRLNSLNKCAVMKLEI: the protein stability index is 2.09.
For the variant RDAIEALCRRLNTLNKCAVMKDEI, the protein stability index worked out at 1.5.
In the case of RDAIEALCRRLNTLNKCAVMKPEI it was 1.43.
For RDAIEALCRRLNTLNKCAVMKGEI, the protein stability index was 1.5.
Consider RDAIEALCRRLNTLNKCAVMKCEI, for which the protein stability index amounted to 2.69.
With RDAIEALCRRLNTLNKCAVMKNEI, the protein stability index was determined as 1.54.
On to RDAIEALCRRLNTLNKCAVMKKEI, for which the protein stability index stood at 1.91.
As for RDAIEALCRRLNTLNKCAVMKMEI, the figure is 3.06; as for RDAIEALCRRLNTLNKCAVMKLEQ, 1.75; as for RDAIEALCRRLNTLNKCAVMKLEP, 1.71.
In the case of RDAIEALCRRLNTLNKCAVMKLET it was 2.21; in that of RDAIEALCRRLNTLNKCAVMKLEE, 1.36.
RDAIEALCRRLNTLNKCAVMKLEK: the protein stability index is 1.87.
For the variant RDAIEALCRRLNTLNKCAVMKLEV, the protein stability index amounted to 2.45.
As to RDAIEALCRRLNTLNKCAVMKLEF, the protein stability index stood at 2.04.
In the case of RDAIEALCRRLATLNKCAVMKLEI, the protein stability index came out at 1.09.
For the variant RDAIEALCRRLETLNKCAVMKLEI, the protein stability index was determined as 1.84.
As for RDAIEALCRRLMTLNKCAVMKLEI, the figure is 1.84; as for RDAIEALCTRLNTLNKCAVMKLEI, 2.37; as for RDAIEALCDRLNTLNKCAVMKLEI, 2.25.
As for RDAIEALCERLNTLNKCAVMKLEI, the figure is 4.07; as for RDAIEALCCRLNTLNKCAVMKLEI, 3.38; as for RDAIEALCRRLNTLNKCAVTKLEI, 2.35.
Turning to RDAIEALCRRLNTLNKCAVPKLEI, the protein stability index is 2.02.
As to RDAIEALCRRLNTLNKCAVNKLEI, the protein stability index was 1.88.
As for RDAIEALCRRLNTLNKCAVRKLEI, the protein stability index was found to be 1.27.
Take RDAIEALCRRLNTLNKCAVKKLEI: the protein stability index was 1.49.
RDAIEALCRRLNTLNKCAVHKLEI: the protein stability index amounted to 3.39.
As for RDAIEALCRRLNTMNKCAVMKLEI, the figure is 1.49.
For the variant RDAIEALCRRLNTQNKCAVMKLEI, the protein stability index was 2.24.
Turning to RDAIEALCRRLNTDNKCAVMKLEI, the protein stability index came to 1.37.
As for RDAIEALCRRLNTHNKCAVMKLEI, the figure is 2.74; as for RDAIEALCRRLNTYNKCAVMKLEI, 3.26; as for RDAIEALCRYLNTLNKCAVMKLEI, 2.21.
As for RDAIEALCRILNTLNKCAVMKLEI, the protein stability index was 4.62.
As to RDAIEALCRQLNTLNKCAVMKLEI, the protein stability index worked out at 3.82.
As to RDAIEALCRRLNTLNKCAVMMLEI, the protein stability index was determined as 1.69.
On to RDAIEALCRRLNTLNKCAVMILEI, for which the protein stability index is 2.1.
As for RDAIEALCRRLNTLNKCAVMSLEI, the figure is 1.73; as for RDAIEALCRRLNTLNKCAVMNLEI, 1.61; as for RDAIEALCRRLNTLNKCAVMRLEI, 2.88.
Turning to RDAIEALCRRLNTLNKCAVMPLEI, the protein stability index turned out to be 1.33.
In the case of RDAIEALCRRLNTLNKCIVMKLEI it was 3.66; in that of RDAIEALCRRLNTLNKCVVMKLEI, 3.7.
Turning to RDAIEALCRRLNTLNKCRVMKLEI, the protein stability index came out at 1.07.
Turning to RDAIEALCRRLNTLNKCHVMKLEI, the protein stability index turned out to be 2.23.
Turning to RDAIEALCRRLNTLNKCEVMKLEI, the protein stability index amounted to 2.7.
On to RDAIEALCRRLNTLNKCYVMKLEI, for which the protein stability index amounted to 3.01.
As for RDAIEALCRRLNTLNKCDVMKLEI, the protein stability index came to 2.78.
With RDAIMALCRRLNTLNKCAVMKLEI, the protein stability index was 3.42.
As for RDAISALCRRLNTLNKCAVMKLEI, the protein stability index was 1.83.
For RDAIRALCRRLNTLNKCAVMKLEI, the protein stability index worked out at 2.97.
Consider RDAIIALCRRLNTLNKCAVMKLEI, for which the protein stability index stood at 2.84.
RDAIAALCRRLNTLNKCAVMKLEI: the protein stability index stood at 2.3.
With RDAIEALYRRLNTLNKCAVMKLEI, the protein stability index came to 3.24.
As to RDAIEALSRRLNTLNKCAVMKLEI, the protein stability index amounted to 1.39.
With RDAIEALFRRLNTLNKCAVMKLEI, the protein stability index is 2.82.
As to RDAIEALMRRLNTLNKCAVMKLEI, the protein stability index is 3.9.
Take RDAIEALLRRLNTLNKCAVMKLEI: the protein stability index was 2.33.
Turning to RDAIEALWRRLNTLNKCAVMKLEI, the protein stability index was 4.11.
For RDAIEALGRRLNTLNKCAVMKLEI, the protein stability index was determined as 3.13.
As for RDAIEALIRRLNTLNKCAVMKLEI, the figure is 4.17; as for RDAIEALCRRLNTLNKCANMKLEI, 1.89.
For RDAIEALCRRLNTLNKCATMKLEI, the protein stability index stood at 1.04.
For the variant RDAIEALCRRLNTLNKCAFMKLEI, the protein stability index stood at 1.62.
Regarding RDAIEALCRRLNTLNKCALMKLEI, the protein stability index is 3.2.
In the case of RDAIEALCRRLNTLNKCAWMKLEI, the protein stability index amounted to 3.62.
For the variant RDAIEALCRRLNTLNFCAVMKLEI, the protein stability index was determined as 3.89.
As for RDAIEALCRRLNTLNECAVMKLEI, the protein stability index came out at 2.45.
As for RDAIEALCRRLNTLNMCAVMKLEI, the protein stability index came out at 2.58.
In the case of RDAIEALCRRLNTLNICAVMKLEI it was 1.93.
RDAIEALCRRLNTLNTCAVMKLEI: the protein stability index is 2.71.
In the case of RDAIEALCRRLNTLNQCAVMKLEI it was 3.29; in that of RDAIEALCRRLNTLNKCAVMKLNI, 3.12; in that of RDAIEALCRRLNTLNKCAVMKLWI, 3.37.
For RDAIEALCRRLNTLNKCAVMKLAI, the protein stability index came out at 2.38.
For RDAIEALCRRLNTLNKVAVMKLEI, the protein stability index is 4.14.
Consider RDAIEALCRRLNTLNKLAVMKLEI, for which the protein stability index was determined as 2.35.
In the case of RDAIEALCRRLNTLNKNAVMKLEI, the protein stability index is 1.83.
In the case of RDAIEALCRRLNTLNKQAVMKLEI, the protein stability index was 1.42.
For RDAIEALCRRLNTLNKEAVMKLEI, the protein stability index was 2.
Regarding RDAIEADCRRLNTLNKCAVMKLEI, the protein stability index was found to be 2.13.
Turning to RDAIEAACRRLNTLNKCAVMKLEI, the protein stability index was 2.37.
RDAIEANCRRLNTLNKCAVMKLEI: the protein stability index is 2.5.
As for RDAIEAPCRRLNTLNKCAVMKLEI, the figure is 2.31; as for RDAIEAFCRRLNTLNKCAVMKLEI, 2.12; as for RDAIEAYCRRLNTLNKCAVMKLEI, 1.81.
With RDAIEALCRRLNTLQKCAVMKLEI, the protein stability index was 5.09.
As for RDAIEALCRRLNTLHKCAVMKLEI, the figure is 2.39.
